Measurements taken from US12558435B2, “Transient inhibition of p53 in gene therapy” (Ospedale San Raffaele S.R.L., priority 2018, dated 2026).

B1: E4orf6/7: adenoviral protein from adenovirus serotype 5 E4 gene (SEQ ID No. 2), delivered as mRNA (protein)
chain: MTTSGVPFGMTLRPTRSRLSRRTPYSRDRLPPFETETRATILEDHPLLPECNTLTMHNAWTSPSPPVKQPQVGQQPVAQQLDSDMNLSELPGEFINITDERLARQETVWNITPKNMSVTHDMMLFKASRGERTVYSVCWEGGGRLNTRVL
modifications: delivered as mRNA; example amino acid sequence of Ad5-E4orf6/7
B2: GSE56: p53 dominant negative peptide (SEQ ID No. 9), transiently overexpressed from electroporated mRNA (protein)
chain: MDGWCPGRDRRTEEENFRKKEEHCPELPPGSAKRALPTSTSSSPQQKKKPLDGEYFTLKIRGRERFEMFRELNEALELKDARAAEESGDSRAHSSYPKIVS
modifications: amino acid sequence of GSE56

Columns and labels:
[1] = test system: human primary T cells; experiment: Gene editing of human primary T cells; type: cell-based; details: 20 days after treatment; bulk CD3+, CD4 and CD8 subpopulations; FIG. 9B
Source text: Finally, we tested the delivery of the E4orf6/7 mRNA together with the Cas9 ribonucleoprotein (RNP) into human primary T cells (peripheral blood derived total CD3+ cells) before AAV6 transduction for the delivery of the donor DNA template (FIG. 9A).

[2] = test system: human CD34+ cells transplanted into NSG mice; experiment: Xenotransplantation of edited human CD34+ cells in NSG mice; type: in vivo; details: limit cells dose T0eq=1×10^5/mouse; FIG. 19A

| Molecule | increase in the percentage of GFP+ cells compared to standard [1] | engraftment of treated cells compared to standard protocol [2] |
| --- | --- | --- |
| B1 | 1.5 fold |  |
| B2 |  | 5-6 fold |
